The test system of test [1] is CRBN C-terminal domain (CTD). The test can be described thus: CRBN-CTD MG-PACE circuit transcriptional activation (luminescence). Type of test: cell-based, human. The settings on record: at 50 μM PT-179.
The test system of the next test is degron-tagged eGFP. The test can be described thus: Flow-based degradation assay, Degron-eGFP-IRES-mCherry in HEK293T cells. Type of test: cell-based, human. As to conditions: HEK293T, overnight PT-179 treatment. As to the method: A flow-based degradation assay was then performed using a stably transduced Degron-eGFP-IRES-mCherry construct in HEK 293T cells to determine the ability of the evolved degrons to […] (see FIG. 7). Concentration of PT-179 is shown on the x-axis. Degrons indicated in the key were fused to the N-terminus of eGFP allowing measurement of eGFP:mCherry ratios for assessing degradation.
To characterize the evolved degrons, stable HEK293T cell lines expressing degron-tagged eGFP were generated (FIG. 19A). […] The final variant, SD36, potently degraded GFP in response to PT-179 (DC50=14 nM).

degron-tagged eGFP, sequence (Q96SW2 24-442 limits assumed): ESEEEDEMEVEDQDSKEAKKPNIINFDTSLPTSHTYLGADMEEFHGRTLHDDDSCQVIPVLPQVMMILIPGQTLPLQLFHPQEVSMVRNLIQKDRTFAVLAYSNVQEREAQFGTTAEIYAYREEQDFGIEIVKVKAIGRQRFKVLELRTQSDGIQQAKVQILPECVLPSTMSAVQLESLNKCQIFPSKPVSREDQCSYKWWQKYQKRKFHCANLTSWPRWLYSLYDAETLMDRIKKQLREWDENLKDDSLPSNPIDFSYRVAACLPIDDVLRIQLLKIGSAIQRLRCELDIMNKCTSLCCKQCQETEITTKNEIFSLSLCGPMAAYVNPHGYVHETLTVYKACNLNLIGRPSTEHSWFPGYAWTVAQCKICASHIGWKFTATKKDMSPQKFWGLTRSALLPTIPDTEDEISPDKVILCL

B1: SD20: Evolved degron SEQ ID NO: 21: S10R E14D P16L E20K Q28E E42V P44T F45V R57K D58R A59C L60F *61VI (protein)
chain: FNVLMVHKRRHTGDRLLQCKICGFTCREKGNLLRHIKLHTGVKTVKCHLCNYACQRKRCFVI
Consider B1, for which, in test [1], the “luciferase expression, activation” value came to 24 fold. The “GFP degradation in response to PT-179” value with degron-tagged eGFP is given as “did not trigger GFP degradation”.

The values are drawn from patent US20250109177A1, “EVOLVED PROTEIN DEGRONS” (The Broad Institute, Inc., priority 2022, published 2025).
